Source: US20090035300A1 (published 2009)
Changes are numbered by the printed parent chain. Names and notes keep the numbering of the source.

B1: YFP fusion of the acidic region of DC-SCRIPT with both motifs mutated (L593A and L648A) (pEYFP-C1), expressed in 293 HEK cells (other)
chain: EQEEPFDASQKRRAKVPVFQSDGESAQGSHCHEEEEEDNCYEVEPYSPGLAPQSQQLCTPEDASTKSEHAPEVLEEACKEEKEDASKGEWEKRSKGDLGAEGGQE
notes: also called Ac/double mut; not shown: yellow fluorescence protein (YFP) encoded by pEYFP-C1
B2: YFP fusion of the acidic region of DC-SCRIPT with the first motif mutated (L593A) (pEYFP-C1), expressed in 293 HEK cells (other)
chain: B1 chain with A63L
notes: also called Ac/mut1; not shown: yellow fluorescence protein (YFP) encoded by pEYFP-C1

Target: FLAG-CtBP1 (full-length CtBP1 in pFLAG-CMV-2), expressed in 293 HEK cells (UniProt Q13363 1-440)
Test: co-immunoprecipitation from transfected 293 HEK cells
Method: 293 HEK cells (8×10⁵) were plated in 6-well plates and transfected with 10 μl Lipofectamine 2000 (Invitrogen Life Technologies) and 1 μg of DNA. Cells were harvested one day after transfection. THP-1 cells (4×10⁶) were brought to a final volume of 0.8 ml and electroporated with 20 μg of DNA in total. Electroporation took place in a 0.2-cm cuvette (Bio-Rad) at 300 V and 960 μF. Day 6 immature human Mo-DCs were transduced with Ad5fib35hDC-SCRIPT-green fluorescence protein (GFP) at a multiplicity of infection of 1000 as described previously (Crucell, Leiden, the Netherlands) (Havenga, M J E et al. (2002) J. Virol. 76, 4612-4620.).
Whole cell lysates were prepared in 1% SDS standard lysis buffer. Equal amounts of protein were separated by SDS-PAGE electrophoresis and proteins were transferred to Protran Nitrocellulose Transfer Membrane (Schleicher and Schuell BioScience). The following primary antibodies were used; Mouse anti-GFP (0.04 μg/ml; Roche), mouse anti-myc (0.2 μg/ml; Invitrogen Life Technologies), M2 mouse anti-FLAG 1 μg/ml (Sigma-Aldrich), mouse anti-Epstein-Barr Virus (anti-EBV) mAb, BZLF1 Protein, ZEBRA, clone BZ.1 (DakoCytomation) in combination with a second HRP conjugated Goat anti-Mouse IgG (H+L) antibody (0.4 μg/ml; Pierce). Inmmunoprecipitation was performed in a standard RIPA/1% Triton X-100 buffer for 3 h at 4° C., using protein G beads. […]

Row | Binder | binding result
1 | B1 | no binding
2 | B2 | no binding
